In patent US8859723 (dated 2014) one finds IC50 and Kd data, which are given here for 13 molecules.

For experiment [1], the target named is T1, hDM2 (In-house, 41 kD) (human, UniProt Q00987 1-125). In words: FP competition.
The target in experiment [2] is T2, hDMX (In-house, 40 kD) (human, UniProt O15151 1-120).
T2 chain: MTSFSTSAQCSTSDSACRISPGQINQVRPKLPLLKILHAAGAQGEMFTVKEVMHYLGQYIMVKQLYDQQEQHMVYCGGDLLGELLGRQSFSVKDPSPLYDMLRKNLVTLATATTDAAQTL
In words: FP competition.

The target in experiment [3] is T1, hDM2 (In-house, 41 kD). In words: FP competition. This is another data set of the same source.
Experiment [4] concerns the target T2, hDMX (In-house, 40 kD). In words: FP competition.
The target of the next experiment is SP-5. In words: Affinity selection MS.
The target of the next experiment is SP-44. In words: Affinity selection MS.

Read-outs that look alike come from different tables or passages of the source.

The term IC50 denotes the concentration at which inhibition is half-maximal. LTFAEYWAQLAA (not fully specified) [SP-671] gave an IC50 with hDM2 (In-house, 41 kD) [1] of 63.6 nM. For WTFALYWSQLAS (not fully specified) [SP-696], the IC50 with hDMX (In-house, 40 kD) [2] came to 379 nM. For ETFAAYWAQLAS (not fully specified) [SP-508], the IC50 is 22.8 nM in the experiment with hDM2 (In-house, 41 kD) [3] and 88.8 nM with hDMX (In-house, 40 kD) [4]. Consider LTFAAYWSQLAA (not fully specified) [SP-698], for which the IC50 with hDM2 (In-house, 41 kD) [1] worked out at 82.2 nM; in the experiment with hDMX (In-house, 40 kD) [2], 157 nM.

In turn, LTFAAYWAALAS (not fully specified) [SP-673] displayed an IC50 with hDM2 (In-house, 41 kD) [1] of 137 nM. LTFAFYWAQLAA (not fully specified) [SP-604] yielded an IC50 in the experiment with hDMX (In-house, 40 kD) [2] of 310 nM. This counts as sub-micromolar. Same read-out and setting: the same measure for LTFAAYWAQFAS (not fully specified) [SP-586]: 673 nM.

B1: GST-hDMX (other)
chain: MTSFSTSAQCSTSDSACRISPGQINQVRPKLPLLKILHAAGAQGEMFTVKEVMHYLGQYIMVKQLYDQQEQHMVYCGGDLLGELLGRQSFSVKDPSPLYDMLRKNLVTLATATTDAAQTL
For orientation: Kd means the free concentration of one partner at which half of the binding sites on the other are occupied at equilibrium, for simple one-to-one binding. High values mean a looser complex, low ones a tighter complex. With B1, the results for the equilibrium dissociation constant (Kd) with SP-5 and with SP-44 were 90 nM and 180 nM, respectively. As to ETFAAYWAQLAA (not fully specified) [SP-709], the IC50 with hDM2 (In-house, 41 kD) [1] amounted to 103 nM. In the experiment with hDM2 (In-house, 41 kD) [1], LTFAVYWAQLAA (not fully specified) [SP-623] came in with an IC50 of 68.3 nM.

B2: GST-hDM2 (other)
chain: MCNTNMSVPTDGAVTTSQIPASEQETLVRPKPLLLKLLKSVGAQKDTYTMKEVLFYLGQYIMTKRLYDEKQQHIVYCSNDLLGDLFGVPSFSVKEHRKIYTMIYRNLVVVNQQESSDSGTSVSEN
With B2, the Kd with SP-5 and with SP-44 was 25 nM in each case. On to ITFAFYWAQLAS (not fully specified) [SP-684], for which the IC50 in the experiment with hDM2 (In-house, 41 kD) [1] was 104 nM. On to LTFAAYWVQLAS (not fully specified) [SP-681], for which the half-inhibitory concentration (IC50) with hDM2 (In-house, 41 kD) [1] amounted to 118 nM; in the experiment with hDMX (In-house, 40 kD) [2] it was 395 nM.
